Experimental findings from US20050038228A1 are described below.

The target in experiment [1] is rheumatoid factor in serum of rheumatism patients (human). Briefly: batch adsorption with γ-sterilized adsorbent: 100 µL adsorbent with 600 µL rheumatism patient serum, 37° C., 2 h; rheumatoid factor depletion from the supernatant.
In experiment [2] the target is IgG in healthy human serum (human). Briefly: batch adsorption as in Example 7 with γ-sterilized adsorbent and healthy human serum; IgG depletion from the supernatant.
Experiment [3] deals with anti-β1 adrenoceptor antibody in serum of patients with dilated cardiomyopathy (human). Briefly: batch adsorption with γ-sterilized adsorbent and dilated cardiomyopathy patient serum; antibody left in the supernatant measured by ELISA on the β1-adrenoceptor second loop peptide.
For experiment [4], the target named is IgG in healthy human serum (human). Briefly: batch adsorption: 100 µL adsorbent with 300 µL healthy human serum, 37° C., 2 h; IgG depletion from the supernatant against a saline control.
For experiment [5] the target is unchanged. Briefly: batch adsorption after γ-ray sterilization (25 kGy): 100 µL adsorbent with 300 µL healthy human serum, 37° C., 2 h; IgG depletion from the supernatant.
In experiment [6] the target is immune complex prepared by heating a human IgG solution (10 mg/mL) at 63° C. for 15 minutes (human). Briefly: batch adsorption after γ-ray sterilization (25 kGy) from healthy human serum spiked with immune complex (20 µg/mL); supernatant measured with a C1q-CIC kit.
The target is the same in experiment [7]. Briefly: batch adsorption from healthy human serum spiked with immune complex (20 µg/mL); supernatant measured with a C1q-CIC kit.

Positions count from the first letter of the chain named.

B1: MG56 peptide (peptide)
peptide: MTTYKLVINGKTLKGETTTKAVDAETAEKAFKQYANDNGVDGVWTYDDATKTFTVTE
For B1, the Adsorption ratio of rheumatoid factor (%) in experiment [1] worked out at 34.4%.

B2: C36 peptide (peptide)
peptide: MTTYKLVINGKTLKGETTTKAVDAETAERAFRQYATDNGVEGMWTYDPATKTFTVTEC
With B2, in experiment [1], the Adsorption ratio of rheumatoid factor (%) was determined as 56.3%. Besides, in experiment [2], the Adsorption ratio of IgG (%) is 59.7%. Besides, the Adsorption ratio of β1 adrenoceptor (%) in experiment [3] worked out at 77.8%.

B3: CO4 peptide (peptide)
peptide: B2 peptide with Q33K, T36N, M43I
In the case of B3, in experiment [4], the Adsorption ratio of IgG before sterilization (%) stood at 97.1%. Further, the Adsorption ratio of IgG after sterilization (%) in experiment [5] was 90.2%.

B4: C24 peptide (peptide)
peptide: B2 peptide with Q33K, T36N, E41D
Consider B4, for which the Adsorption ratio of an immune complex after sterilization (%) in experiment [6] was found to be 80.5%. Besides, in experiment [7], the Adsorption ratio of an immune complex before sterilization (%) came out at 81.5%.

B5: C15 peptide (peptide)
peptide: B2 peptide with T36N, M43L
Take B5: the Adsorption ratio of an immune complex after sterilization (%) in experiment [6] worked out at 84.1%. Moreover, the Adsorption ratio of an immune complex before sterilization (%) in experiment [7] is 85.2%.

B6: B04 peptide (peptide)
peptide: B2 peptide with Q33K, E41D
Regarding B6, the Adsorption ratio of an immune complex after sterilization (%) in experiment [6] is 91.6%. In addition, the Adsorption ratio of an immune complex before sterilization (%) in experiment [7] worked out at 92.4%.
